Experimental findings from the supplement of paper PMC10567573 are described below.

To fix the notation:
B1: CDKL4 (parent)
chain: AVKKFVESEDDPVVKKIALREIRM
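Further: lentivirally expressed fusions sorted by FACS into six bins by GFP to DsRed ratio, PSI derived from sequencing read proportions per bin multiplied by bin number.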

In this data set the parent is B1. The experiment in a line: protein stability index of a GFP-peptide fusion (GPS, HEK-293T) (PSI 1-6); higher = more stable. Particulars: c terminus: a fixed tail appended.
As for AVKKFVESEDDPVVKKIALREERM [I22E], the protein stability index was determined as 4.04.

For AVKKFVESEDDPVVKKIALREVRM [I22V], the protein stability index stood at 2.57.

Regarding AVKKFVESEDDPVVKKIALRERRM [I22R], the protein stability index came to 4.03.

For the variant AVKKFVESEDDPVVKKIALREARM [I22A], the protein stability index came out at 3.82.

For the variant AVKKFVESEDDPVVKKIALGEIRM [R20G], the protein stability index amounted to 3.03.

In the case of AVKKFVESEDDPVVKKIALSEIRM [R20S], the protein stability index stood at 3.19.

For AVKKFVESEDDPVVKKIALFEIRM [R20F], the protein stability index came to 1.5.

As for AVKKFVESEDDPVVKKIALIEIRM [R20I], the protein stability index was determined as 1.39.

AVKKFVESEDDPVVKKIALYEIRM [R20Y]: the protein stability index worked out at 2.25.

AVKKFVESEDDPVVKKIALQEIRM [R20Q]: the protein stability index was found to be 3.49.

For the variant AVKKFVESEDDPVVKKIALDEIRM [R20D], the protein stability index worked out at 3.56.

Turning to AVKKFVESEDDPVVKKIALREILM [R23L], the protein stability index was found to be 1.45.

Regarding AVKKFVESEDDPVVKKIALREIYM [R23Y], the protein stability index is 2.27.

Take AVKKFVESEDDPVVKKIALREICM [R23C]: the protein stability index worked out at 2.78.

Consider AVKKFVESEDDPVVKKIALREIDM [R23D], for which the protein stability index came to 3.95.

On to AVKKFVESEDDPVVKKIALREIIM [R23I], for which the protein stability index was determined as 1.71.

On to AVKKFVESEDDPVVKKIALREIGM [R23G], for which the protein stability index turned out to be 3.16.

Regarding AVKKFVESEDDPVVKKIALREINM [R23N], the protein stability index was 4.2.

Turning to AVKKFVESEDDPVVKKIALREIPM [R23P], the protein stability index is 3.67.

For the variant AVKKFVESEDDPVVKKIALREISM [R23S], the protein stability index is 2.75.

As for AVKKFVESEDDPVGKKIALREIRM [V14G], the protein stability index came to 2.97.

Consider AVKKFVESEDDPVWKKIALREIRM [V14W], for which the protein stability index amounted to 2.65.

As to AVKKFVESEDDPVIKKIALREIRM [V14I], the protein stability index was 2.56.

With AVKKFVESEDDPVKKKIALREIRM [V14K], the protein stability index was found to be 2.82.

Take AVKKFVESEDDPVAKKIALREIRM [V14A]: the protein stability index came out at 3.01.

Regarding AVKKFVESEDDPVNKKIALREIRM [V14N], the protein stability index stood at 3.5.

Consider WVKKFVESEDDPVVKKIALREIRM [A1W], for which the protein stability index is 2.72.

Regarding YVKKFVESEDDPVVKKIALREIRM [A1Y], the protein stability index turned out to be 2.2.

Turning to GVKKFVESEDDPVVKKIALREIRM [A1G], the protein stability index came out at 3.63.

On to HVKKFVESEDDPVVKKIALREIRM [A1H], for which the protein stability index was 2.59.

As for NVKKFVESEDDPVVKKIALREIRM [A1N], the protein stability index worked out at 3.38.

With DVKKFVESEDDPVVKKIALREIRM [A1D], the protein stability index came to 3.75.

For TVKKFVESEDDPVVKKIALREIRM [A1T], the protein stability index is 3.1.

As to IVKKFVESEDDPVVKKIALREIRM [A1I], the protein stability index was 2.16.

Consider AVKKFVESEDDVVVKKIALREIRM [P12V], for which the protein stability index worked out at 2.48.

With AVKKFVESEDDCVVKKIALREIRM [P12C], the protein stability index amounted to 3.05.

As to AVKKFVESEDDHVVKKIALREIRM [P12H], the protein stability index worked out at 2.77.

As for AVKKFVESEDDSVVKKIALREIRM [P12S], the protein stability index stood at 2.99.

Take AVKKFVESEDDQVVKKIALREIRM [P12Q]: the protein stability index stood at 2.45.

For the variant AVKKFVESEDDYVVKKIALREIRM [P12Y], the protein stability index was determined as 2.18.

On to AVKKFVESEDDGVVKKIALREIRM [P12G], for which the protein stability index turned out to be 2.57.

On to AVKKFVESEDDEVVKKIALREIRM [P12E], for which the protein stability index was determined as 3.88.

For AVKKFVESEKDPVVKKIALREIRM [D10K], the protein stability index came out at 2.68.

Turning to AVKKFVESEWDPVVKKIALREIRM [D10W], the protein stability index was 2.16.

AVKKFVESEVDPVVKKIALREIRM [D10V]: the protein stability index was found to be 2.23.

As for AVKKFVESEEDPVVKKIALREIRM [D10E], the protein stability index was 2.99.

With AVKKFVESEIDPVVKKIALREIRM [D10I], the protein stability index came out at 1.81.

AVKKFVESESDPVVKKIALREIRM [D10S]: the protein stability index turned out to be 2.83.

Take AVKKFVESEMDPVVKKIALREIRM [D10M]: the protein stability index worked out at 2.65.

Regarding AVKKFVESEYDPVVKKIALREIRM [D10Y], the protein stability index amounted to 1.84.

Regarding AVKKRVESEDDPVVKKIALREIRM [F5R], the protein stability index was determined as 3.63.

On to AVKKTVESEDDPVVKKIALREIRM [F5T], for which the protein stability index amounted to 4.

Take AVKKKVESEDDPVVKKIALREIRM [F5K]: the protein stability index was found to be 3.55.

For the variant AVKKYVESEDDPVVKKIALREIRM [F5Y], the protein stability index was found to be 3.46.

Regarding AVKKCVESEDDPVVKKIALREIRM [F5C], the protein stability index was found to be 4.34.

For AVKKFVESEDDPVVKAIALREIRM [K16A], the protein stability index came out at 3.77.

On to AVKKFVESEDDPVVKNIALREIRM [K16N], for which the protein stability index was found to be 3.52.

Turning to AVKKFVESEDDPVVKVIALREIRM [K16V], the protein stability index turned out to be 2.27.

Consider AVKKFVESEDDPVVKWIALREIRM [K16W], for which the protein stability index is 2.05.

On to AVKKFVESEDDPVVKHIALREIRM [K16H], for which the protein stability index came out at 3.22.

On to AVKKFVESEDDPVVKEIALREIRM [K16E], for which the protein stability index is 3.95.

On to AVKKFVESEDDPVVKYIALREIRM [K16Y], for which the protein stability index came to 2.44.

Take AVKKFVESEDDPVVKDIALREIRM [K16D]: the protein stability index amounted to 3.48.

AVKKFVESEDDPVVKPIALREIRM [K16P]: the protein stability index was 2.61.

AVKKFVESEDDPVVKMIALREIRM [K16M]: the protein stability index was 3.17.

In the case of AVKKFVCSEDDPVVKKIALREIRM [E7C], the protein stability index worked out at 2.36.

Turning to AVKKFVRSEDDPVVKKIALREIRM [E7R], the protein stability index turned out to be 2.52.

As for AVKKFVASEDDPVVKKIALREIRM [E7A], the protein stability index was 2.99.

AVKKFVPSEDDPVVKKIALREIRM [E7P]: the protein stability index was 2.97.

For AVKKFVMSEDDPVVKKIALREIRM [E7M], the protein stability index is 2.43.

Consider AVKKFVDSEDDPVVKKIALREIRM [E7D], for which the protein stability index was determined as 2.71.

AVKKFVHSEDDPVVKKIALREIRM [E7H]: the protein stability index turned out to be 2.18.

As to AVKKFVSSEDDPVVKKIALREIRM [E7S], the protein stability index was found to be 3.04.

Turning to AVKKFVYSEDDPVVKKIALREIRM [E7Y], the protein stability index was determined as 2.32.

Turning to AVKKFVVSEDDPVVKKIALREIRM [E7V], the protein stability index came to 2.54.

Regarding AVKKFVTSEDDPVVKKIALREIRM [E7T], the protein stability index was determined as 2.52.

As to AVKKFVESEDDPVVKKDALREIRM [I17D], the protein stability index was 4.36.

As for AVKKFVESEDDPVVKKQALREIRM [I17Q], the protein stability index is 3.46.

As to AVKKFVESEDDPVVKKNALREIRM [I17N], the protein stability index is 3.7.

In the case of AVKKFVESEDDPVVKKAALREIRM [I17A], the protein stability index was determined as 3.95.

In the case of AVKKFVESEDDPVVKKEALREIRM [I17E], the protein stability index came out at 3.93.

For the variant AVKKFVESEDDPVVKKKALREIRM [I17K], the protein stability index came to 3.87.

With AVKKFVESEDDPVVKKWALREIRM [I17W], the protein stability index was 2.15.

As for AVKKFVESEDDPVVKKIMLREIRM [A18M], the protein stability index stood at 1.94.

Take AVKKFVESEDDPVVKKIILREIRM [A18I]: the protein stability index came out at 2.21.

For AVKKFVESEDDPVVKKIKLREIRM [A18K], the protein stability index came out at 3.03.

As to AVKKFVESEDDPVVKKIELREIRM [A18E], the protein stability index worked out at 3.37.

On to AVKKFVESEDDPVVKKICLREIRM [A18C], for which the protein stability index was determined as 2.25.

AVKTFVESEDDPVVKKIALREIRM [K4T]: the protein stability index turned out to be 3.25.

On to AVKLFVESEDDPVVKKIALREIRM [K4L], for which the protein stability index came to 2.49.

As for AVKHFVESEDDPVVKKIALREIRM [K4H], the protein stability index turned out to be 2.88.

For AVKCFVESEDDPVVKKIALREIRM [K4C], the protein stability index is 2.6.

In the case of AVKWFVESEDDPVVKKIALREIRM [K4W], the protein stability index was 2.43.

Regarding AVKVFVESEDDPVVKKIALREIRM [K4V], the protein stability index was 2.55.
